The record followed here is patent publication US8209131B2, “Therapeutic heparins and their binding to interleukins 4 and 5 and PECAM-1” (Curtin University of Technology, priority 2004, dated 2012).

Test [1] in a line: BIAcore binding of proteins to heparin immobilised on a biosensor chip. The following applies: for ka / kd / Kd: IL-4 WT and mutants binding to heparin; for ka: in M-1s-1 (unit assumed); for kd: in s-1 (unit assumed); for Kd: read-out: KD. An excerpt:
This technology uses the optical phenomenon of surface plasmon resonance to monitor physical interactions between molecules. Passing the protein solution over a sensor surface to which the ligand is coupled monitors the real-time binding of proteins to an immobilized ligand. Detection is achieved by measuring refractive index changes very close to the sensor surface. When the refractive index is altered, the angle at which plasmon resonance occurs changes and this change directly correlates with the amount of protein interacting with the surface. A BIAcore 2000 is conveniently used. It is very sensitive and its microfluidics ensures that only small amounts of material are required.
The HLGAGs are immobilized on the biosensor chip. Intact HLGAGs are biotinylated via amino groups, or reducing termini modified with ammonia by reductive amination, using sulfo-NHS-biotin. Biotinylated HLGAGs are immobilized on streptavidin-coupled sensor chips. Solutions containing proteins of interest are injected over the sensor chip surface, and the binding is measured in real time (Fernig, In: Proteoglycan protocols, Ed. R.V. Iozzo, Humana Press, Totowa, N.J., USA, 2001). […] In all cases binding is specific, as there is little or no interaction with sensor chips lacking heparin with any of the targeted proteins, and binding is inhibited by exogenous heparin. Initial analyzes indicate that the binding of rhIL-5 to heparin has affinity constants of the order from 50-5×10^−9. Because unsubstituted amines are variably present in heparan sulfates from different tissues, an alternative method of biotin labeling is recommended for the heparan sulfate chip. In this case, heparan sulfate is labeled via oxidized cis-diol residues using biotinyl-LC-hydrazine. […]
Binding experiments with these proteins has indicated to which PECAM-1 domains heparin binds. Two binding assays were used: the assay where PECAM-1 is reacted with a BIAcore biosensor chip to which heparin has been immobilised and the second assay is the binding of PECAM-1 to heparan sulfate on the cell surface.
Site directed mutagenesis was performed on IL-4. Basic residues within the proposed heparin binding site were changed to alanine and the proteins expressed using the baculovirus expression system. The one exception was R88 which was changed to valine. Insect cell expressed proteins were purified on an anti-IL-4 affinity column and checked for purity by SDS-PAGE and silver staining. Mutant IL-4 proteins were examined for their ability to bind heparin immobilised on a biosensor chip and binding assessed using a BIAcore 2000.
For orientation: In SPR one partner is held on a chip, and binding of the other changes the refractive index at the surface.

Test [2] deals with TF1.8 cells. As to the kind of experiment: TF1.8 bioassay of IL-4 mutants (support of proliferation). The class given is cell-based, human. The following applies: for Conc needed for 50% growth, average: IL-4 wt and mutants, TF1.8 cells; for proliferative activity of IL-4 mutants: compared with WT. Here is the method:
TF-1.8 cells have been transfected with the firefly luciferase gene contained in the expression vector, pPGK-puromycin-luciferase (Coombe et al., 1998, Supra). The positive transfectants are cloned to produce a line with good luciferase expression. The proliferation assays are carried out in 96-well microplates suitable for such assays Falcon). The wells are flat bottomed, with white sides and a clear bottom. Cells are washed to remove any cytokine in the growth medium and then resuspended in RPMI/5% w/v FCS. The cells are counted with a Coulter Multisizer (Coulter Electronics, England) and routinely 2.5×10^4 cells are added to microplate wells that contain either no IL-4 (negative control) or various dilutions of IL-4. When the effect of HLGAGs, chondroitin sulfate C, or the heparin fractions of a particular length, or heparin fragments of a particular length and structure is to be measured, the wells also contain various concentrations of these molecules.
The cells proliferate for 48 hours at 37° C. in a humidified atmosphere, after which the luciferase activity is measured by the addition of 50 μl of luciferase substrate buffer (50 mm Tris-HCl, pH 7.8, 15 mM MgSO4, 33.3 mM DTT, 0.1 mM EDTA, 0.5 mM Na-luciferin, 0.5 mM ATP, 0.25 mM lithium Co A and 0.5% v/v Triton X-100). Immediately after the addition of the luciferase buffer the plate is assayed for luciferase activity. Light emissions are detected on a Victor 1420 Multilabel counter (Wallac, Turku, Finland).
IL-4 mutants were compared with WT for their ability to support the proliferation of TF1.8 cells. Titration curves were performed for each of the mutants and the concentration needed to support 50% of cell growth was determined.

B1: R85A: IL-4 mutant, baculovirus expressed (protein)
chain: HKCDITLQEIIKTLNSLTEQKTLCTELTVTDIFAASKNTTEKETFCRAATVLRQFYSHHEKDTRCLGATAQQFHRHKQLIRFLKALDRNLWGLAGLNSCPVKEANQSTLENFLERLKTIMREKYSKCSS
The term Kd denotes the constant that tells how readily two partners part at equilibrium. With B1, in test [1], the “heparin binding of IL-4 mutant relative to wild type” value was “stronger binding than the wild type”, the ka is 1.04E+05, the kd stood at 2.42E−03 and the Kd is 23.4 nM. Moreover, in test [2], the “Conc needed for 50% growth, average” value turned out to be 0.71 ng/mL.

B2: E60A: IL-4 mutant, baculovirus expressed (protein)
chain: HKCDITLQEIIKTLNSLTEQKTLCTELTVTDIFAASKNTTEKETFCRAATVLRQFYSHHAKDTRCLGATAQQFHRHKQLIRFLKRLDRNLWGLAGLNSCPVKEANQSTLENFLERLKTIMREKYSKCSS
For B2, in test [1], the ka was found to be 8.44E+04, the kd turned out to be 2.76E−03 and the dissociation constant (Kd) turned out to be 32.7 nM.

B3: K77A/R88V: IL-4 double mutant (protein, UniProt P05112 25-153, looked up, variant K77A R88V)
Interleukin-4: HKCDITLQEIIKTLNSLTEQKTLCTELTVTDIFAASKNTTEKETFCRAATVLRQFYSHHEKDTRCLGATAQQFHRHAQLIRFLKRLDVNLWGLAGLNSCPVKEANQSTLENFLERLKTIMREKYSKCSS
B3: in test [1], the ka is reported as 1.36E+04, the kd amounted to 1.94E−03 and the Kd turned out to be 142 nM.

B4: K77A/K12A: IL-4 double mutant (protein, UniProt P05112 25-153, looked up, variant K77A K12A)
Interleukin-4: HKCDITLQEIIATLNSLTEQKTLCTELTVTDIFAASKNTTEKETFCRAATVLRQFYSHHEKDTRCLGATAQQFHRHAQLIRFLKRLDRNLWGLAGLNSCPVKEANQSTLENFLERLKTIMREKYSKCSS
As to B4, in test [1], the ka was 1.65E+04, the kd came to 3.44E−03 and the dissociation constant (Kd) is 209 nM.

B5: K77A/R85A: IL-4 double mutant (protein, UniProt P05112 25-153, looked up, variant K77A R85A)
Interleukin-4: HKCDITLQEIIKTLNSLTEQKTLCTELTVTDIFAASKNTTEKETFCRAATVLRQFYSHHEKDTRCLGATAQQFHRHAQLIRFLKALDRNLWGLAGLNSCPVKEANQSTLENFLERLKTIMREKYSKCSS
For B5, in test [1], the ka is given as 1.51E+04, the kd is on record as 1.78E−03 and the Kd is 117 nM.

B6: H74A: IL-4 mutant, baculovirus expressed (protein, UniProt P05112 25-153, looked up, variant H74A)
Interleukin-4: HKCDITLQEIIKTLNSLTEQKTLCTELTVTDIFAASKNTTEKETFCRAATVLRQFYSHHEKDTRCLGATAQQFARHKQLIRFLKRLDRNLWGLAGLNSCPVKEANQSTLENFLERLKTIMREKYSKCSS
On to B6, for which, in test [1], the ka was found to be 2.05E+04, the kd worked out at 6.37E−04 and the equilibrium dissociation constant (Kd) stood at 31.1 nM.

B7: K42A: IL-4 mutant, baculovirus expressed (protein)
chain: HKCDITLQEIIKTLNSLTEQKTLCTELTVTDIFAASKNTTEAETFCRAATVLRQFYSHHEKDTRCLGATAQQFHRHKQLIRFLKRLDRNLWGLAGLNSCPVKEANQSTLENFLERLKTIMREKYSKCSS
On to B7, for which, in test [1], the ka came to 4.63E+04, the kd turned out to be 2.50E−03 and the Kd is 53.9 nM. Besides, the “Conc needed for 50% growth, average” value in test [2] is 0.67 ng/mL.

B8: R53A: IL-4 mutant, baculovirus expressed (protein)
chain: HKCDITLQEIIKTLNSLTEQKTLCTELTVTDIFAASKNTTEKETFCRAATVLAQFYSHHEKDTRCLGATAQQFHRHKQLIRFLKRLDRNLWGLAGLNSCPVKEANQSTLENFLERLKTIMREKYSKCSS
B8: in test [1], the ka was 5.83E+04, the kd is on record as 5.40E−03 and the Kd is 92.5 nM. In test [2], the “Conc needed for 50% growth, average” value is 9.39 ng/mL and the “proliferative activity of IL-4 mutants” value was “slightly decreased proliferative activity”.

B9: D87A: IL-4 mutant, baculovirus expressed (protein, UniProt P05112 25-153, looked up, variant D87A)
Interleukin-4: HKCDITLQEIIKTLNSLTEQKTLCTELTVTDIFAASKNTTEKETFCRAATVLRQFYSHHEKDTRCLGATAQQFHRHKQLIRFLKRLARNLWGLAGLNSCPVKEANQSTLENFLERLKTIMREKYSKCSS
For the molecule B9, in test [1], the ka was 4.42E+04, the kd was found to be 1.59E−03 and the equilibrium dissociation constant (Kd) was determined as 36 nM.

B10: R81A: IL-4 mutant, baculovirus expressed (protein)
chain: HKCDITLQEIIKTLNSLTEQKTLCTELTVTDIFAASKNTTEKETFCRAATVLRQFYSHHEKDTRCLGATAQQFHRHKQLIAFLKRLDRNLWGLAGLNSCPVKEANQSTLENFLERLKTIMREKYSKCSS
With B10, in test [1], the ka turned out to be 2.43E+04, the kd is listed as 2.37E−03 and the Kd was determined as 97.8 nM. Moreover, in test [2], the “Conc needed for 50% growth, average” value turned out to be 4.85 ng/mL and the “proliferative activity of IL-4 mutants” value is recorded as “slightly decreased proliferative activity”.

B11: K84A: IL-4 mutant, baculovirus expressed (protein)
chain: HKCDITLQEIIKTLNSLTEQKTLCTELTVTDIFAASKNTTEKETFCRAATVLRQFYSHHEKDTRCLGATAQQFHRHKQLIRFLARLDRNLWGLAGLNSCPVKEANQSTLENFLERLKTIMREKYSKCSS
On to B11, for which, in test [1], the ka is 3.06E+04, the kd is reported as 2.57E−03 and the Kd was found to be 83.9 nM. Besides, in test [2], the “Conc needed for 50% growth, average” value is 2.95 ng/mL and the “proliferative activity of IL-4 mutants” value is reported as “slightly decreased proliferative activity”.

B12: E9A: IL-4 mutant, baculovirus expressed (protein)
chain: HKCDITLQAIIKTLNSLTEQKTLCTELTVTDIFAASKNTTEKETFCRAATVLRQFYSHHEKDTRCLGATAQQFHRHKQLIRFLKRLDRNLWGLAGLNSCPVKEANQSTLENFLERLKTIMREKYSKCSS
For the molecule B12, in test [1], the ka stood at 1.72E+05, the kd was 8.45E−03 and the Kd is 49.3 nM. Further, in test [2], the “Conc needed for 50% growth, average” value came to 76.1 ng/mL and the “proliferative activity of IL-4 mutants” value was “markedly decreased proliferative activity”.

B13: βc: IL-3, IL-5 and GM-CSF common receptor β extracellular domain fused to flag tag (protein, UniProt P32927 17-443, looked up)
extracellular domain: WERSLAGAEETIPLQTLRCYNDYTSHITCRWADTQDAQRLVNVTLIRRVNEDLLEPVSCDLSDDMPWSACPHPRCVPRRCVIPCQSFVVTDVDYFSFQPDRPLGTRLTVTLTQHVQPPEPRDLQISTDQDHFLLTWSVALGSPQSHWLSPGDLEFEVVYKRLQDSWEDAAILLSNTSQATLGPEHLMPSSTYVARVRTRLAPGSRLSGRPSKWSPEVCWDSQPGDEAQPQNLECFFDGAAVLSCSWEVRKEVASSVSFGLFYKPSPDAGEEECSPVLREGLGSLHTRHHCQIPVPDPATHGQYIVSVQPRRAEKHIKSSVNIQMAPPSLNVTKDGDSYSLRWETMKMRYEHIDHTFEIQYRKDTATWKDSKTETLQNAHSMALPALEPSTRYWARVRVRTSRTGYNGIWSEWSEARSWDTESVLPMW
modifications: extracellular domain Flag tag
notes: IL-3, IL-5 and GM-CSF common receptor β extracellular domain fused to flag tag
Turning to B13, the “binding to immobilized heparin” value in test [1] (recombinant proteins, FIG. 2) is “binds to heparin”.
